Results as given in CN117264055A (SHANGHAI HRAIN BIOTECHNOLOGY CO LTD, dated 2023).

T1: 重组人CD318-avi-his抗原蛋白 (human, UniProt Q9H5V8 30-667)
T1 construct: Coated on ELISA plates at 100 ng per well; also called 重组人CD318蛋白; CDCP1
T1 sequence: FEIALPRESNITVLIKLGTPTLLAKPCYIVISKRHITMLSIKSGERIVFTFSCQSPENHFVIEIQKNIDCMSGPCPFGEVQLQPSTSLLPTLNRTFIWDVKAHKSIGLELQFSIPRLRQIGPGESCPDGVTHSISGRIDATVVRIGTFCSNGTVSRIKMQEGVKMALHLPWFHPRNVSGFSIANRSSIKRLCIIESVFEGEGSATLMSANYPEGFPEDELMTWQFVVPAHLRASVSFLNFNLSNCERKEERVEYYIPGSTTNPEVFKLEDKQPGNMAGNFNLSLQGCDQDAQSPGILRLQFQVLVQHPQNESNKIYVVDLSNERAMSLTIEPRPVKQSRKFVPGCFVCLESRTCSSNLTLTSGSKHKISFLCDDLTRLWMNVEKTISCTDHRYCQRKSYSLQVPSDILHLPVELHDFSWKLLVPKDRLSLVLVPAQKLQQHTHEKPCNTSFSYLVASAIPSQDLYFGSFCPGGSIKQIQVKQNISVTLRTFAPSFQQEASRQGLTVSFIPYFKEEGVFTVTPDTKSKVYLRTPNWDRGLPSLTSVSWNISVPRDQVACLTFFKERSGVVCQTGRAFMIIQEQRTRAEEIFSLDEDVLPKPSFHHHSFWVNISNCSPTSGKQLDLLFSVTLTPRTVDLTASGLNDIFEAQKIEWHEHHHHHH

T2: 生物素化的CD318蛋白 (human, UniProt Q9H5V8 30-667, biotin on the avi-tag)
T2 construct: Used 1:200 to stain CAR-T cells; also called 生物素-标记的CD318抗原; biotinylated recombinant human CD318-avi-his
T2 sequence: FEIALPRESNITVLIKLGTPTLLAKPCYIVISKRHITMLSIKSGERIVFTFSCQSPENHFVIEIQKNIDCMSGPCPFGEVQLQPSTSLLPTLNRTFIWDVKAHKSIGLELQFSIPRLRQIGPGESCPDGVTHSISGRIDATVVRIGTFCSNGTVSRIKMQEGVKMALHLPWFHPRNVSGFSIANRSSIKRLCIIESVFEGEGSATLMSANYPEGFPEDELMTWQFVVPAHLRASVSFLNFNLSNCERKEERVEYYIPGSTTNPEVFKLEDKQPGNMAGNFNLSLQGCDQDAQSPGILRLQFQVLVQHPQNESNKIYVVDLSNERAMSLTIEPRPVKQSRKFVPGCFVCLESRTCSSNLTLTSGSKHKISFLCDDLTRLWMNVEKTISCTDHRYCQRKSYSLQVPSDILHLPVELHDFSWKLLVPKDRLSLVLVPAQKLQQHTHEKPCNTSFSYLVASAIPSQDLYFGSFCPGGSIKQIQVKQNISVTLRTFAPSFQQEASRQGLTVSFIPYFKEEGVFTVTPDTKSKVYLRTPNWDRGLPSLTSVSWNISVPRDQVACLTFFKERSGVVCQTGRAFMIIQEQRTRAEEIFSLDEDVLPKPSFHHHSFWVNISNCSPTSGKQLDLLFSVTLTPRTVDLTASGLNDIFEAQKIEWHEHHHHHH

B1: 4G2 (VHH)
VHH: QVQLVESGGGLVQAGGSLRLSCAAFGNKYDFNTMGWYRQGPGKQRELVATIAAGGRTNYADSAKGRFTISRDNAKNTVYLQMNSLKPEDTAVYYCSAERVKNHYADYALDDYWGQGIQVTVSS
notes: Tested as a periplasmic extract from TG1 (pcomb3X phagemid) and detected with anti-HA HRP; also called CD318 VHH 4G2
B2: 4A4 (VHH)
VHH: QVQLVESGGGLVQAGGSLRLSCAASGSIFSGSAMGWYRQAPGKQRELVVVESSGGSTNYADSVKGRFTISRDNAKNTVYLQMNSLKPEDTAVYYCRGFYYGMGYWGKGTQVTVSS
notes: Tested as a periplasmic extract from TG1 (pcomb3X phagemid) and detected with anti-HA HRP; also called CD318 VHH 4A4
B3: 4B7 (VHH)
VHH: EVQLVETGGGLVQPGGSLRLSCAASGFTLDYYAIGWFRQAPGKEREGVSCITSSDDNTYYADSVKGRFTISRDNAKNTVYLQMNSLKPEDTAVYYCATDALSIRRSSCQLGPTAYFGMDYWGKGTLVTVSS
notes: Tested as a periplasmic extract from TG1 (pcomb3X phagemid) and detected with anti-HA HRP; also called CD318 VHH 4B7
B4: 4A10 (VHH)
VHH: EVQVVESGGGLVQAGGSLRLSCVASGSNDSMTAMGWYRQAPGKQREMVAVSTSTGTAIYGDSMKGRFTIARDNAKNTVYLQMNSLNFEDTAVYYCRNFIRGRDYWGQGTQVTVSS
notes: Tested as a periplasmic extract from TG1 (pcomb3X phagemid) and detected with anti-HA HRP; also called CD318 VHH 4A10
B5: 4B2 (VHH)
VHH: EVQVVESGGGLVQAGGSLRLSCVASGSSDSMNAMGWYRQAPGKQRETVAVSTSVGTAIYGDSVKGRFTISRDNAKNTVYLQMNSLNFEDTAVYYCRIFSRGRDYWGQGTQVTVSS
notes: Tested as a periplasmic extract from TG1 (pcomb3X phagemid) and detected with anti-HA HRP; also called CD318 VHH 4B2
B6: 4A8 (VHH)
VHH: EVQLVESGGGLVQPGGSLRLSCAASGFTSDYYAIGWFRQAPGKEREGVSCINNSDGSTYYADSVKGRFTISRDNAKNTVYLQMNSLKPEDTAVYYCAADDDVVAGFSCASYRYLELWGQGTLVTVSS
notes: Tested as a periplasmic extract from TG1 (pcomb3X phagemid) and detected with anti-HA HRP; also called CD318 VHH 4A8
B7: 4A10-BBz (other)
chain: EVQVVESGGGLVQAGGSLRLSCVASGSNDSMTAMGWYRQAPGKQREMVAVSTSTGTAIYGDSMKGRFTIARDNAKNTVYLQMNSLNFEDTAVYYCRNFIRGRDYWGQGTQVTVSSTTTPAPRPPTPAPTIASQPLSLRPEACRPAAGGAVHTRGLDFACDIYIWAPLAGTCGVLLLSLVITLYCRFSVVKRGRKKLLYIFKQPFMRPVQTTQEEDGCSCRFPEEEEGGCELRVKFSRSADAPAYQQGQNQLYNELNLGRREEYDVLDKRRGRDPEMGGKPRRKNPQEGLYNELQKDKMAEAYSEIGMKGERRRGKGHDGLYQGLSTATKDTYDALHMQALPPR
notes: Chimeric antigen receptor: CD8 signal peptide, VHH, CD8a hinge, CD8a transmembrane, 4-1BB, CD3zeta; also called 4A10 CD318 CAR
B8: 4A8-BBz (other)
chain: EVQLVESGGGLVQPGGSLRLSCAASGFTSDYYAIGWFRQAPGKEREGVSCINNSDGSTYYADSVKGRFTISRDNAKNTVYLQMNSLKPEDTAVYYCAADDDVVAGFSCASYRYLELWGQGTLVTVSSTTTPAPRPPTPAPTIASQPLSLRPEACRPAAGGAVHTRGLDFACDIYIWAPLAGTCGVLLLSLVITLYCRFSVVKRGRKKLLYIFKQPFMRPVQTTQEEDGCSCRFPEEEEGGCELRVKFSRSADAPAYQQGQNQLYNELNLGRREEYDVLDKRRGRDPEMGGKPRRKNPQEGLYNELQKDKMAEAYSEIGMKGERRRGKGHDGLYQGLSTATKDTYDALHMQALPPR
notes: Chimeric antigen receptor: CD8 signal peptide, VHH, CD8a hinge, CD8a transmembrane, 4-1BB, CD3zeta; also called 4A8 CD318 CAR

These binders were tested against T1, 重组人CD318-avi-his抗原蛋白 (assay: ELISA, coated recombinant human CD318, periplasmic extract, anti-HA HRP).

Binder | binding result
B1 | binds
B2 | binds
B3 | binds
B4 | binds
B5 | binds
B6 | binds

The binders below were run against T2, 生物素化的CD318蛋白 (assay: flow cytometry, CAR-T cells stained with biotinylated CD318 antigen and PE-streptavidin).

Binder | binding result
B7 | binds
B8 | binds
